Source: IntAct's records for PubMed 16469698

B1: Transcription-repair-coupling factor (Escherichia coli (strain K12)), P30958 (parent)
chain: MPEQYRYTLPVKAGEQRLLGELTGAACATLVAEIAERHAGPVVLIAPDMQNALRLHDEISQFTDQMVMNLADWETLPYDSFSPHQDIISSRLSTLYQLPTMQRGVLIVPVNTLMQRVCPHSFLHGHALVMKKGQRLSRDALRTQLDSAGYRHVDQVMEHGEYATRGALLDLFPMGSELPYRLDFFDDEIDSLRVFDVDSQRTLEEVEAINLLPAHEFPTDKAAIELFRSQWRDTFEVKRDPEHIYQQVSKGTLPAGIEYWQPLFFSEPLPPLFSYFPANTLLVNTGDLETSAERFQADTLARFENRGVDPMRPLLPPQSLWLRVDELFSELKNWPRVQLKTEHLPTKAANANLGFQKLPDLAVQAQQKAPLDALRKFLETFDGPVVFSVESEGRREALGELLARIKIAPQRIMRLDEASDRGRYLMIGAAEHGFVDTVRNLALICESDLLGERVARRRQDSRRTINPDTLIRNLAELHIGQPVVHLEHGVGRYAGMTTLEAGGITGEYLMLTYANDAKLYVPVSSLHLISRYAGGAEENAPLHKLGGDAWSRARQKAAEKVRDVAAELLDIYAQRAAKEGFAFKHDREQYQLFCDSFPFETTPDQAQAINAVLSDMCQPLAMDRLVCGDVGFGKTEVAMRAAFLAVDNHKQVAVLVPTTLLAQQHYDNFRDRFANWPVRIEMISRFRSAKEQTQILAEVAEGKIDILIGTHKLLQSDVKFKDLGLLIVDEEHRFGVRHKERIKAMRANVDILTLTATPIPRTLNMAMSGMRDLSIIATPPARRLAVKTFVREYDSMVVREAILREILRGGQVYYLYNDVENIQKAAERLAELVPEARIAIGHGQMRERELERVMNDFHHQRFNVLVCTTIIETGIDIPTANTIIIERADHFGLAQLHQLRGRVGRSHHQAYAWLLTPHPKAMTTDAQKRLEAIASLEDLGAGFALATHDLEIRGAGELLGEEQSGSMETIGFSLYMELLENAVDALKAGREPSLEDLTSQQTEVELRMPSLLPDDFIPDVNTRLSFYKRIASAKTENELEEIKVELIDRFGLLPDPARTLLDIARLRQQAQKLGIRKLEGNEKGGVIEFAEKNHVNPAWLIGLLQKQPQHYRLDGPTRLKFIQDLSERKTRIEWVRQFMRELEENAIA

Variants of: B1
Conditions: with rpob_ecoli rpoB

| Variant | effect of a mutation on the interaction |
| --- | --- |
| L499R | decreasing interaction |
